The values below come from PMC10644391 (2023).

For the assay, the target named is T1, HEG1 cytoplasmic tail 7-mer peptide cytoplasmic tail 7-mer (Homo sapiens, UniProt Q9ULI3, also: Cy5-labelled).
T1 chain: SRRRDYF
The assay is described as follows: fluorescence polarization.

Ends that are not written are not given here.

B1: KRIT1 417-736 (protein)
chain: KPYEKVRIYRMDGSYRSVELKHGNNTTVQQIMEGMRLSQETQQYFTIWICSENLSLQLKPYHKPLQHVRDWPEILAELTNLDPQRETPQLFLRRDVRLPLEVEKQIEDPLAILILFDEARYNLLKGFYTAPDAKLITLASLLLQIVYGNYESKKHKQGFLNEENLKSIVPVTKLKSKAPHWTNRILHEYKNLSTSEGVSKEMHHLQRMFLQNCWEIPTYGAAFFTGQIFTKASPSNHKVIPVYVGVNIKGLHLLNMETKALLISLKYGCFMWQLGDTDTCFQIHSMENKMSFIVHTKQAGLVVKLLMKLNGQLMPTERNS
Molecule B1 had an equilibrium dissociation constant (Kd) of 13 nM.
